The supplement of paper PMC11780869

Test system: Bacillus subtilis
Assay: cleaved RNA product abundance (RNA/gDNA barcode ratio) relative to median wild-type variant (ratio to wild type); higher = more accumulation of the downstream cleavage product
Details: cleavage site: cggR-gapA (positions -7 to +36 mutated)
Procedure, shortened: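 Cleaved product abundance for each construct is its RNA-to-gDNA barcode ratio, scaled to the median construct carrying the unmutated site. Cleaved RNA was isolated on a gel, reverse transcribed and barcode-sequenced, with genomic DNA barcodes sequenced alongside and UMIs collapsed. The reporters were truncated aprE or tetM mRNAs with barcoded, mutagenized RNase Y cleavage-site windows integrated into the B. subtilis chromosome, and cultures grew in LB at 37°C from OD600 0.0003 to 0.3.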

[1] = experiment (reporter, strain, medium): exp 4a: truncated aprE reporter, strain BJT201 with 2% xylose (RNase J1 expressed)
[2] = experiment (reporter, strain, medium): exp 2b: truncated aprE reporter, strain BJT200
[3] = experiment (reporter, strain, medium): exp 6: tetM reporter, strain 168

Sequence | cleaved RNA product abundance [1] | cleaved RNA product abundance [2] | cleaved RNA product abundance [3]
ACAGACGAAGGAGCCGCAAAGAAGTTATTAAGGGATGAATCTTCCCTCAATATAAATATCTCTCACTTATTTAAA | 1.05 |  | 
ACAGACGAAGGAGCCGCAAAGAAGTTATTAAGGGATGAATGATCCATCAATATAAATATCTCTCACTTATTTAAA | 0.259 |  | 
ACAGACGAAGGAGCCGCAAAGAAGTTATTAAGGGATGAATGATCCCACAATATAAATATCTCTCACTTATTTAAA | 0.101 | 0.121 | 
ACAGACGAAGGAGCCGCAAAGAAGTTATTAAGGGATGAATGATCCCTAAATATAAATATCTCTCACTTATTTAAA | 0.488 |  | 
ACAGACGAAGGAGCCGCAAAGAAGTTATTAAGGGATGAATGATCCCTCAAAATAAATATCTCTCACTTATTTAAA | 0.149 | 0.14 | 
ACAGACGAAGGAGCCGCAAAGAAGTTATTAAGGGATGAATGATCCCTCAATATAAAAATCTCTCACTTATTTAAA | 0.651 |  | 
ACAGACGAAGGAGCCGCAAAGAAGTTATTAAGGGATGAATGATCCCTCAATATAAATATCTCTCACTTATTTAAA | 0.699 | 0.466 | 0.63
ACAGACGAAGGAGCCGCAAAGAAGTTATTAAGGGATGAATGATCCCTCAATCTAAATATCTCTCACTTATTTAAA | 0.0934 |  | 
ACAGACGAAGGAGCCGCAAAGAAGTTATTAAGGGATGAATGATCCCTCCATATAAATATCTCTCACTTATTTAAA |  | 0.123 | 
ACAGACGAAGGAGCCGCAAAGAAGTTATTAAGGGATGAATGATCCCTGAATATAAATATCTCTCACTTATTTAAA | 0.383 |  | 
ACAGACGAAGGAGCCGCAAAGAAGTTATTAAGGGATGAATGATCCTTCAATATAAATATCTCTCACTTATTTAAA | 0.258 |  | 
ACAGACGAAGGAGCCGCAAAGAAGTTATTAAGGGATGAATTAACCCTCAATATAAATATCTCTCACTTATTTAAA | 0.492 |  | 
ACAGACGAAGGAGCCGCAAAGAAGTTATTAAGGGATGAATTATACCTCAATATAAATATCTCTCACTTATTTAAA | 0.162 | 0.139 | 
ACAGACGAAGGAGCCGCAAAGAAGTTATTAAGGGATGAATTATCACTCAATATAAATATCTCTCACTTATTTAAA | 0.178 |  | 
ACAGACGAAGGAGCCGCAAAGAAGTTATTAAGGGATGAATTATCCATCAATATAAATATCTCTCACTTATTTAAA | 0.144 | 0.163 | 
ACAGACGAAGGAGCCGCAAAGAAGTTATTAAGGGATGAATTATCCCACAATATAAATATCTCTCACTTATTTAAA | 0.319 |  | 
ACAGACGAAGGAGCCGCAAAGAAGTTATTAAGGGATGAATTATCCCTAAATATAAATATCTCTCACTTATTTAAA | 0.433 | 0.399 | 
ACAGACGAAGGAGCCGCAAAGAAGTTATTAAGGGATGAATTATCCCTCAACATAAATATCTCTCACTTATTTAAA | 0.284 | 0.179 | 
ACAGACGAAGGAGCCGCAAAGAAGTTATTAAGGGATGAATTATCCCTCAATATAAAAATCTCTCACTTATTTAAA | 0.966 |  | 
ACAGACGAAGGAGCCGCAAAGAAGTTATTAAGGGATGAATTATCCCTCAATATAAATACCTCTCACTTATTTAAA |  | 0.469 | 
ACAGACGAAGGAGCCGCAAAGAAGTTATTAAGGGATGAATTATCCCTCAATATAAATATCTCTCACTTATTTAAA | 0.845 | 0.687 | 0.559
ACAGACGAAGGAGCCGCAAAGAAGTTATTAAGGGATGAATTATCCCTCAATATACATATCTCTCACTTATTTAAA | 0.442 |  | 
ACAGACGAAGGAGCCGCAAAGAAGTTATTAAGGGATGAATTATCCCTCAATATATATATCTCTCACTTATTTAAA | 0.616 |  | 
ACAGACGAAGGAGCCGCAAAGAAGTTATTAAGGGATGAATTATCCCTCACTATAAATATCTCTCACTTATTTAAA | 0.208 |  | 
ACAGACGAAGGAGCCGCAAAGAAGTTATTAAGGGATGAATTATCCCTCATTATAAATATCTCTCACTTATTTAAA | 0.32 |  | 
